T1: HLA-DR DRB1*0701 (human)
T1 chain 1: not shown
T1 chain 2: not shown

T2: HLA-DR DRB4*0101 (human)
T2 chain 1: not shown
T2 chain 2: not shown

T3: HLA-DR DRB1*0101 (human)
T3 chain 1: not shown
T3 chain 2: not shown

T4: HLA-DR DRB1*0404 (human)
T4 chain 1: not shown
T4 chain 2: not shown

T5: HLA-DR DRB1*0401 (human)
T5 chain 1: not shown
T5 chain 2: not shown

T6: HLA-DR DRB5*0101 (human)
T6 chain 1: not shown
T6 chain 2: not shown

T7: HLA-DR DRB1*1302 (human)
T7 chain 1: not shown
T7 chain 2: not shown

T8: HLA-DR DRB1*0405 (human)
T8 chain 1: not shown
T8 chain 2: not shown

T9: HLA-DR DRB1*1101 (human)
T9 chain 1: not shown
T9 chain 2: not shown


How the values were obtained:
Conditions in all cases: remark: other sources report otherwise
HLA-DR DRB1*0701 (human) [1] = molecular target: T1, HLA-DR DRB1*0701 (human); assay: radioligand inhibition, purified HLA-DR
HLA-DR DRB4*0101 (human) [2] = molecular target: T2, HLA-DR DRB4*0101 (human); assay: radioligand inhibition, purified HLA-DR
HLA-DR DRB1*0101 (human) [3] = molecular target: T3, HLA-DR DRB1*0101 (human); assay: radioligand inhibition, purified HLA-DR
HLA-DR DRB1*0404 (human) [4] = molecular target: T4, HLA-DR DRB1*0404 (human); assay: radioligand inhibition, purified HLA-DR
HLA-DR DRB1*0401 (human) [5] = molecular target: T5, HLA-DR DRB1*0401 (human); assay: radioligand inhibition, purified HLA-DR
HLA-DR DRB5*0101 (human) [6] = molecular target: T6, HLA-DR DRB5*0101 (human); assay: radioligand inhibition, purified HLA-DR
HLA-DR DRB1*1302 (human) [7] = molecular target: T7, HLA-DR DRB1*1302 (human); assay: radioligand inhibition, purified HLA-DR
HLA-DR DRB1*0405 (human) [8] = molecular target: T8, HLA-DR DRB1*0405 (human); assay: radioligand inhibition, purified HLA-DR
HLA-DR DRB1*1101 (human) [9] = molecular target: T9, HLA-DR DRB1*1101 (human); assay: radioligand inhibition, purified HLA-DR
HLA-DR DRB1*0101 (human) [10] = molecular target: T3, HLA-DR DRB1*0101 (human); assay: radiolabeled-peptide inhibition, purified HLA-DR
HLA-DR DRB5*0101 (human) [11] = molecular target: T6, HLA-DR DRB5*0101 (human); assay: radiolabeled-peptide inhibition, purified HLA-DR
HLA-DR DRB4*0101 (human) [12] = molecular target: T2, HLA-DR DRB4*0101 (human); assay: radiolabeled-peptide inhibition, purified HLA-DR
HLA-DR DRB1*0405 (human) [13] = molecular target: T8, HLA-DR DRB1*0405 (human); assay: radiolabeled-peptide inhibition, purified HLA-DR
HLA-DR DRB1*0401 (human) [14] = molecular target: T5, HLA-DR DRB1*0401 (human); assay: radiolabeled-peptide inhibition, purified HLA-DR
HLA-DR DRB1*1101 (human) [15] = molecular target: T9, HLA-DR DRB1*1101 (human); assay: radiolabeled-peptide inhibition, purified HLA-DR
HLA-DR DRB1*1302 (human) [16] = molecular target: T7, HLA-DR DRB1*1302 (human); assay: radiolabeled-peptide inhibition, purified HLA-DR
HLA-DR DRB1*0701 (human) [17] = molecular target: T1, HLA-DR DRB1*0701 (human); assay: radiolabeled-peptide inhibition, purified HLA-DR
HLA-DR DRB1*0404 (human) [18] = molecular target: T4, HLA-DR DRB1*0404 (human); assay: radiolabeled-peptide inhibition, purified HLA-DR

Row | Binder | IC50 (HLA-DR DRB5*0101 (human) [6]) [nM] | IC50 (HLA-DR DRB1*0101 (human) [10]) [nM] | IC50 (HLA-DR DRB5*0101 (human) [11]) [nM] | IC50 (HLA-DR DRB4*0101 (human) [12]) [nM] | IC50 (HLA-DR DRB1*0405 (human) [13]) [nM] | IC50 (HLA-DR DRB1*0401 (human) [14]) [nM] | IC50 (HLA-DR DRB1*1302 (human) [16]) [nM] | also measured
1 | TEILKGGVLIQRNPQ [Her2/neu.146] | 1880 |  |  |  |  |  |  | IC50 (HLA-DR DRB1*0701 (human) [1]): 2490 nM; IC50 (HLA-DR DRB1*0101 (human) [3]): 11 nM; IC50 (HLA-DR DRB1*0404 (human) [4]): 32 nM; IC50 (HLA-DR DRB1*0405 (human) [8]): 760 nM; IC50 (HLA-DR DRB1*0401 (human) [5]): 40 nM; IC50 (HLA-DR DRB1*1101 (human) [9]): 692 nM; IC50 (HLA-DR DRB1*1302 (human) [7]): 343 nM
2 | ICELHCPALVTYNTD [Her2/neu.263] | 2810 |  |  |  |  |  |  | IC50 (HLA-DR DRB4*0101 (human) [2]): 441 nM; IC50 (HLA-DR DRB1*0401 (human) [5]): 754 nM; IC50 (HLA-DR DRB1*1302 (human) [7]): 3220 nM
3 | LREVRAVTSANIQEF [9019.0046] |  | 17 | 94 |  |  |  |  | 
4 | ISAVVGILLVVVLGV [9019.0067] |  |  |  | 3110 | 447 | 420 | 443 | IC50 (HLA-DR DRB1*0701 (human) [17]): 941 nM; IC50 (HLA-DR DRB1*0404 (human) [18]): 3000 nM
5 | ILLVVVLGVVFGILI [9019.0068] |  |  |  | 11000 | 376 | 635 | 478 | IC50 (HLA-DR DRB1*0701 (human) [17]): 780 nM; IC50 (HLA-DR DRB1*0404 (human) [18]): 3530 nM; IC50 (HLA-DR DRB1*1101 (human) [15]): 2460 nM
6 | FYTLHVIKSDLVNEE [CEA.119 peptide 9019.0114] | 4500 |  |  |  |  |  |  | IC50 (HLA-DR DRB1*0701 (human) [1]): 56 nM; IC50 (HLA-DR DRB4*0101 (human) [2]): 22 nM; IC50 (HLA-DR DRB1*0404 (human) [4]): 169 nM; IC50 (HLA-DR DRB1*0405 (human) [8]): 41 nM
7 | MAGVGSPYVSRLLGI [9019.0078] |  |  |  |  |  |  |  | IC50 (HLA-DR DRB1*0701 (human) [17]): 352 nM
8 | CMQIAKGMSYLEDVR [9019.0083] |  |  | 130 | 3000 |  | 2650 | 2230 | IC50 (HLA-DR DRB1*0701 (human) [17]): 116 nM; IC50 (HLA-DR DRB1*0404 (human) [18]): 867 nM

Further lines, with some results ahead:

Row | IC50 (HLA-DR DRB5*0101 (human) [6]) [nM] | IC50 (HLA-DR DRB1*0101 (human) [10]) [nM] | IC50 (HLA-DR DRB5*0101 (human) [11]) [nM] | IC50 (HLA-DR DRB4*0101 (human) [12]) [nM] | IC50 (HLA-DR DRB1*0405 (human) [13]) [nM] | IC50 (HLA-DR DRB1*0401 (human) [14]) [nM] | IC50 (HLA-DR DRB1*1302 (human) [16]) [nM] | Binder | also measured
9 | 10200 |  |  |  |  |  |  | GYVIGTQQATPGPAY [CEA.81 peptide 9019.0110] | IC50 (HLA-DR DRB1*0701 (human) [1]): 1700 nM; IC50 (HLA-DR DRB4*0101 (human) [2]): 63 nM; IC50 (HLA-DR DRB1*0101 (human) [3]): 21 nM; IC50 (HLA-DR DRB1*0404 (human) [4]): 34 nM; IC50 (HLA-DR DRB1*0401 (human) [5]): 31 nM; IC50 (HLA-DR DRB1*1302 (human) [7]): 43 nM
10 | 3000 |  |  |  |  |  |  | TTPVTGASPGGLREL [Her2/neu.126] | IC50 (HLA-DR DRB1*0101 (human) [3]): 992 nM; IC50 (HLA-DR DRB1*0404 (human) [4]): 675 nM; IC50 (HLA-DR DRB1*0405 (human) [8]): 13200 nM; IC50 (HLA-DR DRB1*1302 (human) [7]): 6060 nM
11 |  | 96 | 67 | 270 | 8.5 | 243 | 751 | ITGYLYISAWPDSLP [9019.0050] | IC50 (HLA-DR DRB1*1101 (human) [15]): 2570 nM
12 |  | 462 | 7040 |  |  | 1020 |  | SQFLRGQECVEECRV [9019.0062] | IC50 (HLA-DR DRB1*0701 (human) [17]): 540 nM; IC50 (HLA-DR DRB1*0404 (human) [18]): 4550 nM
13 |  | 1500 | 1500 | 7800 |  | 3860 |  | KIPVAIKVLRENTSP [1622.03] | IC50 (HLA-DR DRB1*0404 (human) [18]): 125 nM; IC50 (HLA-DR DRB1*1101 (human) [15]): 4110 nM
14 |  | 92 | 308 | 5060 | 596 |  | 402 | AYVMAGVGSPYVSRL [9019.0077] | 
15 |  | 158 |  |  | 11200 | 401 | 116 | HRDLAARNVLVKSPN [9019.0085] | 
16 |  |  | 5420 |  | 1900 | 2760 |  | SDVWSYGVTVWELMT [9019.0089] | IC50 (HLA-DR DRB1*1101 (human) [15]): 2640 nM
17 | 380 |  |  |  |  |  |  | FRELVSEFSRMARDP [Peptide 9019.0096] | IC50 (HLA-DR DRB1*0701 (human) [1]): 5060 nM; IC50 (HLA-DR DRB1*0404 (human) [4]): 51 nM; IC50 (HLA-DR DRB1*0401 (human) [5]): 22 nM; IC50 (HLA-DR DRB1*1101 (human) [9]): 381 nM

Source: patent publication US20100310640A1
